Test system: MS2 coat protein
Test: apparent KD of MS2 coat protein; designed switch direction (-1 OFF switch, 1 ON switch): 1; higher = weaker reporter binding
How it was run: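 The reported apparent KD is a per-design median over clusters, from curve fits of normalised cluster fluorescence. Protein titrations used SNAP-549-labelled MS2 coat protein, doubled from 0.7 or 1.5 nM to 3 µM, in Tris-HCl pH 7.5 buffer with KCl, MgCl2, BSA, DTT, tRNA and Tween-20, with no input, 200 uM small-molecule ligand, or an oligonucleotide input. The RNA switches were transcribed on Illumina chips by stalled E. coli RNA polymerase.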

[1] = input ligand: microRNA oligo, concentration not stated
[2] = Eterna round: R95, input ligand: FMN 200 uM
[3] = Eterna round: R95, input ligand: microRNA oligo, concentration not stated
[4] = Eterna round: R95, input ligand: none

Row | Sequence | apparent KD of MS2 coat protein (input ligand: FMN 200 uM) [nM] | apparent KD of MS2 coat protein [1] [nM] | apparent KD of MS2 coat protein (input ligand: none) [nM] | apparent KD of MS2 coat protein [2] [nM] | apparent KD of MS2 coat protein [3] [nM] | apparent KD of MS2 coat protein [4] [nM]
1 | GGAGCCAAGGCAGGAUAUUCAUAUUAACAACAUGAGGAUCACCCAUGUAAGGCCAGAAGGCCUUGGGAGAAGGGCCAUGGCUCG [Xeonanis - 13 mod4] (Eterna round: R96, puzzle: Same State NG 2) | 26.2 | 110 | 187 | – | – | –
2 | CUGAGCAAUCAAGGAUAUCACGUCGAUUAGACGUGAGAAGGUGAUCAUAACAUGAGGAUCACCCAUGUAUUACAUGAAGCUCAG [SSNG1/1-A2] (Eterna round: R96, puzzle: Same State NG 1) | 975 | 692 | 740 | – | – | –
3 | AGUCCAGCGAAAGCUGGACAAAAGCAUGUACAUGAGGAUCACCCAUGUUCAUGUAUAAGCUUUUUGCUCGUUUUAAA [JL mod - D95 - 17] (puzzle: Sensor for hsa-mir-208a) | – | – | – | 16.2 | 10.2 | 15.9
4 | UAGUACAAGCUUUUUGCUUGUCUUAUUUAACAUGAGGAUCACCCAUGUAAGUUGAAAGUUAGAGAGUGCACCUUCAA [JR_SHM208A_Sub052] (puzzle: Sensor for hsa-mir-208a) | – | – | – | 18.7 | 18.9 | 17.1
5 | AAACACAGCAUAACGCCGUGACAUGAGGAUCACCCAUGUACACAGGAUAUCAUGGCAUAACGCCAUGAGAAGGGUGAUCAAGAC [Raorma] (Eterna round: R96, puzzle: Same State NG 3) | 732 | 77 | 78.8 | – | – | –
6 | GAGCCAGUCCGAGGAUAUUCAUAUUAAAACAUGAGGAUCACCCAUGUAGGCUCAGAAGAGCCUUGGGAGAAGGCGGACUGGCUC [Xeonanisa] (Eterna round: R96, puzzle: Same State NG 2) | 23.3 | 214 | 366 | – | – | –
7 | GUGGUCAAUCAAGGAUAUGGAGCCUUAUUGGCUCCAGAAGGUGGGACAUGAGGAUCACCCAUGUGGCAGUGGUCAAAUGACCAC [Fiskers NG1ss - 34] (Eterna round: R96, puzzle: Same State NG 1) | 149 | 172 | 164 | – | – | –
8 | GUGGUCAGACAUGAGGAUCACCCAUGUGGAAUAAAUAAGGGAUAGGAUAUGGAAUAUAGGAUAUACCAGAAGGGUUGGUUGGUG (Eterna round: R96, puzzle: Same State NG 3) | 107 | 87.6 | 95.1 | – | – | –
9 | GCAGGACGGUAAAACAUCUCACAUGAGGAUCACCCAUGUUGUGAGGAUAUGGAUCCUAAUUGGAUCCAGAAGGCACGGUCCUGC [Fiskers NG3ss - 30] (Eterna round: R96, puzzle: Same State NG 3) | 24.9 | 17.7 | 27.8 | – | – | –
10 | GUGGUCAGACAUGAGGAUCACCCAUGUGGAAUAAAUAAGGAAUAGGAUAUCGAAUAUAGGAUAUACGAGAAGGGUUGGUUGGUG (Eterna round: R96, puzzle: Same State NG 3) | – | 80 | – | – | – | –
11 | GCGGAACAUGAGGAUCACCCAUGUGGAGGGUGUAAAGGAUAUUAUAGAGAGAAGGUAGGGUAAGAAGGUUGCUGGG [JR_SS1_Sub090] (Eterna round: R96, puzzle: Same State 1) | 899 | 582 | 994 | – | – | –
12 | AUAAAACAUGAGGAUCACCCAUGUCAACAAAGUCGAGGAUAUGGGCAAAUAAAUUAAGAACCAGAAGGCGAAUAAU [salish99_ss1_r3_021] (puzzle: Same State 1) | – | – | – | 36.9 | 236 | 313
13 | AUGGUGCAGGUACAGGAUAUGUUGCUCGUAACAUGAGGAUCACCCAUGUACCUAUGAGAAUAAAUGCAGAAGGGUGCACACCACG [Mat - Same State 2 - Mod of UCT - D92] (puzzle: Same State 2) | – | – | – | 57 | 3220 | 156
14 | AUAAAACAUGAGGAUCACCCAUGUCAAUAAAGUCGAGGAUAUGGGCAAAUAAAAUAAGAACCAGAAGGCGAAUAAU [salish99_ss1_r3_042] (puzzle: Same State 1) | – | – | – | 33.2 | 217 | 206
15 | CUGAGCGAUCGAGGAUAUCACGUCGAAUAGACGUGAGAAGGCGAUCAUAACAUGAGGAUCACCCAUGUAUUACAUGAAGCUCAG [SSNG1/4-A1] (Eterna round: R96, puzzle: Same State NG 1) | 13.2 | 10.5 | 17.8 | – | – | –
16 | GUAAGUUCGAUGCUCGUCUCUCCGUACAAACAUGAGGAUCACCCAUGUGAUCGGGAAGUAGCCCGAUCAGUAUGGCC [Teonveenes] (puzzle: Sensor for hsa-mir-208a) | – | – | – | 34.8 | 24.3 | 38.2

Row | Sequence | apparent KD of MS2 coat protein (input ligand: FMN 200 uM) [nM] | apparent KD of MS2 coat protein [1] [nM] | apparent KD of MS2 coat protein (input ligand: none) [nM] | apparent KD of MS2 coat protein [2] [nM] | apparent KD of MS2 coat protein [3] [nM] | apparent KD of MS2 coat protein [4] [nM]
17 | ACCCGCGGGCCACAUGAGGAUCACCCAUGUGACCGGUGAUCCAAGGAUAUGUGUAGGGUAGAUGCACAGAAGGUGGCCAAAACU [Ainriqu] (Eterna round: R96, puzzle: Same State NG 3) | 26.6 | 14.8 | 18.5 | – | – | –
18 | UGAAUGGUGAUAGGAUAUACAUGAGGAAUCCUCGUAGAAGGAUCACGACAUGAGGAUCACCCAUGUAGCCGUCCGUAGACGGCA [JL SSNG1 1.23] (Eterna round: R96, puzzle: Same State NG 1) | 99.7 | 778 | 242 | – | – | –
19 | GUGCUCGUGUAAGGAUAUGCAGCCGUUUCGGCUGCAGAAGGUACUAUAAUACAUGAGGAUCACCCAUGUCUCUAUAGUUUGGUG [salish99_SSNG1_r04_905] (Eterna round: R96, puzzle: Same State NG 1) | – | 22.3 | – | – | – | –
20 | ACAUGAGACUCAGGAUAUCAUGUACCUACAUGUGACAUGAGGAUCACCCAUGUGGUAAGUAUGACUGAGAAGGGAGAGAUAUGU [Equivalance 88 - Jieux - Same State NG 2] (Eterna round: R96, puzzle: Same State NG 2) | 63.7 | 159 | 248 | – | – | –
21 | GGACGUCAAUCUCCUAAUUAAACAUGAGGAUCACCCAUGUCACAGGAUAUGAGUCCGAUUAGGACUCAGAAGGGUGAGACGUCC [Fiskers NG3ss - 49] (Eterna round: R96, puzzle: Same State NG 3) | 22.1 | 17.2 | 25.8 | – | – | –
22 | UGAGCCGGCACUGAGGAUAUUCAUAUUAAAACAUGAGGAUCACCCAUGUAGGCCAGAAGGCCUUGGGAGAAGGCAGGUCGGCUCA [Mat - Same State 2 - Mod of UCT - D62] (puzzle: Same State 2) | – | – | – | – | 200 | –
23 | AUUAUUAAUGCAGGAUAUGAUUAACAUGAGGAUCACCCAUGUGGUGUUGUGAGUAAGGAGAGUGAUCAGAAGGGCAUUUUGUUU [JMF's solution 12] (Eterna round: R96, puzzle: Same State NG 2) | 1130 | 526 | 591 | – | – | –
24 | UUGCUCGUGUGAGGAUAUGCCGCCGUUUCGGCUGCAGAAGGUACUUUAAUACAUGAGGAUCACCCAUGUCUCUGUUGUUUCGUG [salish99_SSNG1_r04_933] (Eterna round: R96, puzzle: Same State NG 1) | – | 23.1 | – | – | – | –
25 | GUAGCAUACCGAGGAUAUUCAUUAAACAUGAGGAUCACCCAUGUAAAUUAUAGGCGAAAGCCUUGGGAGAAGGCGGAAUGCUAC [Xeonanis - 20 Mod72] (Eterna round: R96, puzzle: Same State NG 2) | 11 | 11.3 | 19.1 | – | – | –
26 | GCUCUGGCGGUAGGAUAUCUAGGAUAUGGGAAAGACUAAGUCUGUAGGUCACCUAACCCAGAAGGAGAGAAGGACCCUGUAAGG [pwkr ssNG2 2FMN + F9.23] (Eterna round: R96, puzzle: Same State NG 2) | 21 | 17.2 | 18.6 | – | – | –
27 | UGUUGUAUUACAGGAUAUCUAUGAUUUUUACUUAGAGAAGGGUAUUCACAUGAGGAUCACCCAUGUAUAUACGAGGAAGUUGUG [JMF's solution 67] (Eterna round: R96, puzzle: Same State NG 1) | 47.2 | 35.1 | 44.2 | – | – | –
28 | UAGUUUCAACGAGGAUAUAAUAGGUUCUAUUCGUGAUAUUGCGUACAUGAGGAUCACCCAUGUUAUUAGAAGGCGUAUGGGUUU [JR_SSNG2_Sub086] (Eterna round: R96, puzzle: Same State NG 2) | 89.9 | 59.8 | 77.9 | – | – | –
29 | ACAUGAGACUCAGGAUAUCUUGUACCUACAUGUGACAUGAGGAUCACCCAUGUGGUAAGUAUGACAGAGAAGGGAGAGAUAUGU [Equivalance 87 - Jieux - Same State NG 2] (Eterna round: R96, puzzle: Same State NG 2) | 26.7 | 47.2 | 64.1 | – | – | –
30 | UUGGUUCUCGUAGGAUAUGUAGGAUAUUCCUACAUGAGGAUCACCCAUGUUCGCAUGGAAGAAGGACAGAAGGACGAUCACCAU [pwkr ssNG2 2FMN + 1F5.18] (Eterna round: R96, puzzle: Same State NG 2) | 54.8 | 1.88 | 14 | – | – | –
31 | GGUCCAGCCUGAGCUGGACCACAGCAUGUACAUGAGGAUCACCCAUGUCAUGUACAAGCUUUUUGUUUAACUUAAAA [Sensorship 12 - Jieux - Sensor for hsa-mir-208a] (puzzle: Sensor for hsa-mir-208a) | – | – | – | 211 | 18.2 | 287
